Experiment: yeast display, Sf9 membrane polyspecificity reagent, FACS + sequencing; frameworks hold sequencing errors
Procedure, shortened: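 Synthetic nanobody libraries on Saccharomyces cerevisiae BJ5465 were galactose-induced for 36–48 hours, stained 1 hour at 4 °C with 10% biotinylated, detergent-solubilized Sf9 membrane reagent and enriched on streptavidin microbeads. FACS then separated cells into low and high (top ~1%) gates by anti-HA (expression) and streptavidin (reagent binding) fluorescence. Genes were colony-PCR amplified, MiSeq 2 × 250 sequenced and CDR-length filtered. A clone's polyreactivity label is that of its gate of origin.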

Sequence	polyreactivity (PSR sort gate)
QVQLVESGGGLVQAGGSLPLSSAASGITLRYYAMRWYRQAPGKERELVAAMSGRGGGTYYADSVKGRFTISRDNAKNTVYLQMNSLKPEDTAVYYCNAVGQQQVEYEYWGQGTQVTVSS	high polyreactivity
QVQLVESGGGLVQAGGSLRLSCAASGRTFQGNTMGWYRQAPGKEREFVAAMSSRGGSTYYADSVKGRFTISRDNAKNTVYLQMNRLKPEDTAVYYCDARFSHGYDYWGQGTQVTVSS	high polyreactivity
QVQLVESGGGLVQAGGSLRLSCAASGLTFGDNAMGWYRQAPGKERELVAAITTSGPSTYYADSVKGRFTISRDNAKNTVYLQMNSLKPEDTAVYYCAADGLFYWVQYGYWGQGTQVTVSS	low polyreactivity
QVQLVESGGGLVQAGGSLRLSCAASGRIFSRYALGWYRQAPGQERELDAAINKSGGSTYYADSVKGRFTISRDNAKNTVYFQMKSMKAEDTAVYYCTAVYYWYKGDYWGQGTQVTVSS	high polyreactivity
QVQLVESGGGLVQAGGCLRLSCADSGGTFGPYAMGWYIQAPGKEREFVARITGSGTRTYYADSVKGRFTISGDNAKNNVYLQMNSLNPEDTAVYYCATSHSRGSRGHDYWGQGTQVTVSS	low polyreactivity
QVQLVESGGGLVQAGGSLRLSCAASGSIFTFYTMGWYRQAPGKERELVAAINWSGSRTYYADSVKGRFTISRDNAKNTVYLQMNSLIQEDTAVYYCNVRCYYKRRYGWYSYRYGYWGQGTQVTVSS	high polyreactivity
QVQLVESGGGLVQAGGSLRLSCAASGSTFSYYAMGWYRQAPGKERELVAAISRTAVSTYYADSVKGRFTISRDNAKNTVYLQMNSLKPEDTAVYYCAASHFHGYSLGYDYWGQGTQVTVSS	high polyreactivity
QVQLVESGGGLVQAGGSLRLSCAASGRTLDYNAMGLYRQAPGKERELVAAISWTGDSTYYADSVKGRFTISRDNAKNTVNLQMNSLKPEDTAVYYCAASYSRFVDWIGDPGYDYWGQGTQVTVSS	low polyreactivity
QVQLVESGGGLDQAGGSLRLSGAASGSIFDNAMGWYSQAPGKERELVAAITSGGITNYADSVKGRFTISRDNAKNTVYLQMNSLKPEDTAVYYCNTLSPTQTKYDYWGQGTQVTVSS	low polyreactivity
QVKLVESGGGLVQAGGSLRLSCAASGSIFYQYAMGGNRQAPGKERELVAVINRSGSSTYYADSVKGRFTISRDNAKNTVYLQMNSLKPEDTAVYYCAGASKYSEYNYWGQGTQVTVSS	high polyreactivity
QVQLVESGGGLVQAGGSLRLSCAASGSIFGDNAMGWSRQAPGKERDLVAAISSGGPTYADSVKGRFTISRDYAKNTVYLLMNSLKPEDTAVYYCNATDGMTPYDLTDIEFDYWGQGTHVTVSS	low polyreactivity
QVQLVESGGGLVQAGGSLRLSCAASGGTFDVYTMGWYRQAPGKERELVAAIDNGGSTNYADSVKGRFTISRDNAKNTVYLQMNSLQPEDTAVYYCAADEVYLFWGIAEFIYDYWGQGTQVTVSS	low polyreactivity
QVHLVESGGGLVQAGGSLRLSCAASGIIFDEYAMGWYSQAPGKERELVAAINWSGGITYYADSVKGRFTISRDNAKNTVYLQMNSLKPEDTAVYYCNKDPLVFDYWGQGTQVTVSS	low polyreactivity
QVQLVESGGGLVQAGGSLRLSCAASGIIFITNAMGWYRQAPGKERDLVAVISFSGGGTYADSVKGRFTISRDNAKNTVYLQMNSLTPEDTAVYYCAKYWLSALTLEDDYWGQGTQVTVSS	low polyreactivity
HVQLVESGGGLVQAGGSLRLSCAASGSTFYNYAMGWYRQAPGNERELVAGISSGVTTNYADSVKGRYTISRDNAKNTVYLQMNSLKPEDTAVYYCAAVHSWYARYLGGEDYDYWGQGTQVTVSS	low polyreactivity
QDQLVESGGGLVQAGGSLRLSCAASGFTFTRYAMGWYRQAPGKERELVAAITQRGGSTYYADSVKGRFTISRDNAKNTVYLQMNSLKPEDTAVYYCAAVQTRRWYGYLYNYWGQGTQVTVSS	high polyreactivity
QVQLVESGGGLDQAGGSLRLSCAASGLTFWYYAMGWYRQAPGKERELVVAISWSGGRTSYADSVKGRFTISRDNAKNTVYLQMNSLKPEDTAVYYCAADKDFRTGEYEYDYWGQGTQVTVSS	high polyreactivity
QVQLVESGGGLVQAGGSLRLSCAASGSTFDVYAMGWYRQAPGKERELVAAISRSGGSTYYADSVKGRFTISRDNAKNTVYLQMNSLKPEDTAVSYCNARLARWGSDEYNYWGQGTQVTVSS	low polyreactivity
QVQLVESGGGLVQAGGSLRLSCAASGFIFLAYTMGWYRPAPGKERELVAAISTSGGSTYYADSVKGRFTISRDNAKNTVYLQMNILKPEDTAVYYCAARYRWGRYDYWGQGTQVTVSS	high polyreactivity
QVQLVESGGGLVQAGGSLRLSCAASGIIFGFNTMGWYRQAPGKERELVAVITWSGGSTYYADSVKGRFTISRVFAKNTVYLQMNCLNPDDTAVYYCATVRAVEYNYWGQGTQVTVSS	low polyreactivity
QVQLVESGGGLVQEGGSLRLSCAASGITFGRYAMGWYRQAPGKERELVAAITTRGGSTYYADSVKGRFTISRDNAKNTVYLQMNSLKPEDTAVYYCAARVPGVSVKNDYCGQGTQVTVSS	high polyreactivity
QVQLVETGGGLVQAGGSLRLSCAASRSTIADNAMGWYRQAPGKERELVAAITRSGVRTYYADSVKGRFTISRDNAKNTVYLQMNSLKPEDTAVYYCAKRTYPSRIYDYWGQGTQVTVSS	low polyreactivity

Sequence	polyreactivity (PSR sort gate)
QVQLGESGGGLVQAGGSLRLTCAASGGTFKGYAMGWYRQAPGKERELVAAISWSGVRTYYADSVKGRFTISRDNAKNTVYLQMNSLKPEDTAVYYCAASWLLRMGYWGQGTQVTVSS	high polyreactivity
QVQLGESGGGLVQAGGSLRLSCAASGRIFAYYTMGWYRQAPGKERELVAAITSGGSTYYADSVKGRFTISRDYAKNTVYLQMNSLKPEATAVYYCAAGWYTPVYLYYYWGQGTQVTVSS	high polyreactivity
QVQLVESGGGLVQAGGSLRLSCAASGFIFAFNAMGWYRQAPGKEREFVASITGSSDSTYYADSVKGRFTISRDNAKNTVYLQMNSLKPEDTAVYYCAADPASSYGKYSYYYWGQGTQVTVSS	high polyreactivity
QVQLVESGGGLVQAGGSLRLICAASGSIFYYYAMGWYRQAPGKERELVATITWNGAGTFYADSVKGRFTISRDNAKNTVYLQMNSLKPEDTSVYYCAASWYGESGYEYWGQGTQVTVSS	low polyreactivity
QVQLVESGGGLVQAGGSLRLSCAASGFIFLGYAMGWYRQAPGKERELVAAISSDSDTNYADSVKGRFTISRDNAKNTVYLQMNSLKPEDTAVYYCNADIDSYREMDYWGQGTQVTVSS	low polyreactivity
QVQLVESGGGLVQAGGSLRLSCAASGFTFRYYSMGWYRQAPGKERELVAAISSGGSTKYADSVKGRFTISRDNAKNTVYLQMNSLKPEDTAVYYCAARVVDGAQPRYVVIINTRYYWGQGTQVTVSS	high polyreactivity
QVQLVESGGGLVQAGGRLRLSSAASGIIFGNNAMGWYRQAPGKERELVAAIRYSGGRTYYADSVKGRFTISRDIAKNTVYLQMNSLKPEDTAVYYCNALRRGPDGSDYWGQGTQVTVSS	high polyreactivity
QVQLVESGVGLVQAGGSLRLSCAASGSTFDANAMGWYIQAPGKERELVAAITSNGGSTYYADSVKGRFTISRDNAKNTVYLQMNSLKPEDTAVYYCASEQHTVQDYDYWGQGTQVTVSS	low polyreactivity
QVQLVESGGGLVQAGGSLRLSCAASGSTFYPYPMGWYRQAPGKERELVATISSSGGTTSYADSVKGRFTISRDNAKNTVYLQMNSLKPEDTAVYYGAARGYGSLHHVLGHHDSWGQGTQVTVSS	low polyreactivity
QVQLVESGGGLVQAGCSLRLSCAASGITFANYAMGWYRPAPGKVRELVAAINWSGGITYADSVKGRFTISRDNAKNTVYLQMHSLKPEDTAVYYCNPYYPDYAKYDYWGQGTQVTVSS	low polyreactivity
QVQLVESGAGLVQARGSLRLSCAASGSIFLSYVMGWYRQAPGKERELVAAISKRGGRTYYADSVKGRFTISRDNAKNTVYLQMNSLKPEDTAVYYCNAVTQRESEEGDYWGQGTQVTVSS	high polyreactivity
QVQLVESGGGLVQAGGSLRLSCAASGRILYNYAMGWYRQAPGKECELVAAISSGGSTNYADSVKGRFTISRDNAKNTVYFQMNSLKPEDTAVYYCAAYRGHSWRGLYRWSDYDFWGQGTQVTVSS	low polyreactivity
QVQLVESGGCLVQAGGSLRLSCAASGRTFRRYAMGWYRQAPGKERELVASITWRGGRTYYADSVKGRFTISRDNAKNTVYLQMNSLKPEDTAVYYCAAEDYQLPGYRRTHVEKMDYWGQGTQVTVSS	low polyreactivity
QVQLVESGGGLVQAAASLRLSCPASGSTFRFYTMALYIQSPGTESDLVAAITRRGGITFYSDSVKWRFTISRDNAKNTVYLHMNSLKPEDTAVYDCAARFAYWGQDYYFWGQGSQVTVSS	high polyreactivity
QVQLQERGGGLVQAGGSLCLSCAASGTIFFDGDMGWYRQAPGKEREFVAAINPGGSAYYADSVKGRLPLAAITHTVYLQMNSLKPEDTAVYYCAAKLFDVYGYYYWGQGTHVTVSS	low polyreactivity
QVQIVESGGVLVQAGGSLRLSCAASGLTLKRYAMGWYRQAPRKERELVASITGSGGSTYADTVKARFTISRDNAKNTVYLHMNSLNPEDTAVYYCAKDTRYEYVGSEYCFWGQGTQVTVSS	low polyreactivity
QVQLVESGGGLVQAGGSLRLSCAASGFTFSWYAMGWYRQAPGKERELVAAINADGGTTYYADSVKGRFTISRDNAKNTVYLQMNSLKPEDTAVYYCAVPYPYGYEYDHWGQGTQVTVSS	low polyreactivity
QVQLVESGGGLVQAGGSLRLSCAASGSIFLYNTMGWYRQAPGKQRELVAALTYSGGSTYYADSVKGRFTISRDHAKNTVYLQMNSLKPEDTAVNYGNARHYSAYYSWGQGTLVTVSS	high polyreactivity
QVQLVESGGGLVQAGGSLRLSCAASGFIFYRYAMGWYRQEPGKERELVASINYSGGRTYYADSVKGRFTISRDNAKNTVYLQMNSLKPEDTAVYYCNARYKSTYYYWGQGTQVTVSS	high polyreactivity
QVQLVESGGGLVQAGGSLSLSCAASGRTIIRNAMGWYRQAPGKERELVAAINSGGITNYADSVKGRFTISRDNAKNTVYLKMNSLKPEDTAVYYCNARGSYPPYRSYGYWGQGTQVTVSS	low polyreactivity
QVQLVESGGGLVQAGGSLRLSCAASGFTFKYYVKGWYRQAPGKERELVAAISSNGGTTYYADSVKGRFTISRDNAKNTVYVQMNSLKPEDTAVYYCAAEPGQEYVVGYSYWGQGSQVTVSS	high polyreactivity

From the nanobody polyreactivity screen of Harvey et al. (2022)
